Source: patent US5364782A, “Mutant microbial α-amylases with increased thermal, acid and/or alkaline stability” (Gist-Brocades N.V., priority 1989, dated 1994)
Substitutions are numbered along the chain they refer to. Names may count otherwise.

B1: Bacillus licheniformis α-amylase, WT (wild type, B. licheniformis T5; SEQ ID NO: 3) (Bacillus licheniformis) (protein)
chain: ANLNGTLMQYFEWYMPNDGQHWKRLQNDSAYLAEHGITAVWIPPAYKGTSQADVGYGAYDLYDLGEFHQKGTVRTKYGTKGELQSAIKSLHSRDINVYGDVVINHKGGADATEDVTAVEVDPADRNRVISGEHRIKAWTHFHFPGRGSTYSDFKWHWYHFDGTDWDESRKLNRIYKFQGKAWDWEVSNENGNYDYLMYADIDYDHPDVAAEIKRWGTWYANELQLDGFRLDAVKHIKFSFLRDWVNHVREKTGKEMFTVAEYWQNDLGALENYLNKTNFNHSVFDVPLHYQFHAASTQGGGYDMRKLLNSTVVSKHPLKAVTFVDNHDTQPGQSLESTVQTWFKPLAYAFILTRESGYPQVFYGDMYGTKGDSQREIPALKHKIEPILKARKQYAYGAQHDYFDHHDIVGWTREGDSSVANSGLAALITDGPGGAKRMYVGRQNAGETWHDITGNRSEPVVINSEGWGEFHVNGGSVSIYVQR
notes: made in house; host or cells: E. coli WK6
B2: Bacillus licheniformis α-amylase mutant 2D5 (H133Y, T149I) (Bacillus licheniformis; H162Y/T178I) (protein)
chain: B1 chain with H133Y, T149I
notes: as for B1

What was measured:
[1] = substrate: O=[N+]([O-])c1ccc(OC2O[C@H](CO)[C@@H](O[C@H]3O[C@H](CO)[C@@H](O[C@H]4O[C@H](CO)[C@@H](O[C@H]5O[C@H](CO)[C@@H](O[C@H]6O[C@H](CO)[C@@H](O)[C@H](O)[C@H]6O)[C@H](O)[C@H]5O)[C@H](O)[C@H]4O)[C@H](O)[C@H]3O)[C@H](O)[C@H]2O)cc1; test: Enzymatic activity with 4NP-DP5 as substrate, Michaelis-Menten kinetics (WT); type: biochemical, Bacillus licheniformis; conditions: other: substrate 4NP-DP5 0-1 mM, 35° C., 50 mM MOPS, 50 mM NaCl, 2 mM CaCl2, pH 7.15, WT α-amylase
Description: (§1) The enzymatic activity of B. licheniformis α-amylase WT and mutants was measured using 4-nitrophenyl-maltopentaoside (4NP-DP5) as a substrate, 4 nitrophenol and maltopentaose are formed, this reaction can be followed by measuring the change in OD 405 The assay was performed at 35° C. in 50 mM MOPS, 50 mM NaCl, 2 mM CaCl2 (PH 7.15) and 0-1 mM 4NP-DP5.
(§2) Initial rates were measured and E-nitrophenol was taken as 10,000 l/M/cm.

[2] = substrate: O=[N+]([O-])c1ccc(OC2O[C@H](CO)[C@@H](O[C@H]3O[C@H](CO)[C@@H](O[C@H]4O[C@H](CO)[C@@H](O[C@H]5O[C@H](CO)[C@@H](O[C@H]6O[C@H](CO)[C@@H](O)[C@H](O)[C@H]6O)[C@H](O)[C@H]5O)[C@H](O)[C@H]4O)[C@H](O)[C@H]3O)[C@H](O)[C@H]2O)cc1; test: Enzymatic activity with 4NP-DP5 as substrate, Michaelis-Menten kinetics (mutant 2D5); type: biochemical, Bacillus licheniformis; conditions: other: substrate 4NP-DP5 0-1 mM, 35° C., 50 mM MOPS, 50 mM NaCl, 2 mM CaCl2, pH 7.15, 2D5 α-amylase
Description: 2D5 contained the D7 mutation and in addition threonine 149 was replaced by isoleucine (2D5=H133Y, T149I).
as §1, §2

Protein	Km [1] [µM]	Vmax [1] [µmol/min/mg]	Km [2] [µM]	Vmax [2] [µmol/min/mg]
B1	112	66.7 ± 0.9	–	–
B2	–	–	119	66.3 ± 0.7
